Columns and labels:
LRP = LRP (Homo sapiens, UniProt Q07954); experiment: Degradation of activated α2-macroglobulin (LRP ligand); assay type: cell-based; details: leptin up to 2 μg/mL
LSR = experiment: 125I-chylomicron binding to primary rat hepatocytes; assay type: cell-based; details: 20 ng/mL leptin with 0.5 mM oleate
Experimental: FIGS. 6A, 6B, and 6C show the effect of leptin on ^125I-LDL and ^125I-chylomicron binding to LSR in primary cultures of rat hepatocytes. For FIG. 6A, primary cultures of rat hepatocytes (48 hours after plating) were incubated at 37° C. for 30 min in the absence (□) or presence (▪) of 50 ng/mL leptin in Buffer A, followed by a 20 min incubation at 37° C. with 0.5 mM oleate. The cells were then washed with ice-cold PBS, precooled for 10 min, and then incubated for 1 h at 4° C. with increasing concentrations of ^125I-LDL in Buffer A. Cells were washed, were lysed in 0.1 N NaOH and were counted for radioactivity. Results are shown as the mean of duplicate determinations. For FIG. 6B, primary cultures of rat hepatocytes were incubated at 37° C. for 30 min with or without 20 ng/mL leptin followed by incubation at 37° C. for 4 h with 6 μg protein/mL ^125I-chylomicrons in the absence or presence of 0.5 mM oleate in Buffer A. The cells were then washed and the ^125I-chylomicrons bound to the cell surface were released into the media by incubation with 10 mM suramin. The media was recovered and the radioactivity was measured. Results are shown as the mean±SD of six determinations. […] The amount of ^125I-chylomicrons bound was determined, and results are shown as means±SD of triplicate (irrelevant) or quadruplicate (anti-LSR) determinations. […]

Chain of LRP (Q07954 20-4544): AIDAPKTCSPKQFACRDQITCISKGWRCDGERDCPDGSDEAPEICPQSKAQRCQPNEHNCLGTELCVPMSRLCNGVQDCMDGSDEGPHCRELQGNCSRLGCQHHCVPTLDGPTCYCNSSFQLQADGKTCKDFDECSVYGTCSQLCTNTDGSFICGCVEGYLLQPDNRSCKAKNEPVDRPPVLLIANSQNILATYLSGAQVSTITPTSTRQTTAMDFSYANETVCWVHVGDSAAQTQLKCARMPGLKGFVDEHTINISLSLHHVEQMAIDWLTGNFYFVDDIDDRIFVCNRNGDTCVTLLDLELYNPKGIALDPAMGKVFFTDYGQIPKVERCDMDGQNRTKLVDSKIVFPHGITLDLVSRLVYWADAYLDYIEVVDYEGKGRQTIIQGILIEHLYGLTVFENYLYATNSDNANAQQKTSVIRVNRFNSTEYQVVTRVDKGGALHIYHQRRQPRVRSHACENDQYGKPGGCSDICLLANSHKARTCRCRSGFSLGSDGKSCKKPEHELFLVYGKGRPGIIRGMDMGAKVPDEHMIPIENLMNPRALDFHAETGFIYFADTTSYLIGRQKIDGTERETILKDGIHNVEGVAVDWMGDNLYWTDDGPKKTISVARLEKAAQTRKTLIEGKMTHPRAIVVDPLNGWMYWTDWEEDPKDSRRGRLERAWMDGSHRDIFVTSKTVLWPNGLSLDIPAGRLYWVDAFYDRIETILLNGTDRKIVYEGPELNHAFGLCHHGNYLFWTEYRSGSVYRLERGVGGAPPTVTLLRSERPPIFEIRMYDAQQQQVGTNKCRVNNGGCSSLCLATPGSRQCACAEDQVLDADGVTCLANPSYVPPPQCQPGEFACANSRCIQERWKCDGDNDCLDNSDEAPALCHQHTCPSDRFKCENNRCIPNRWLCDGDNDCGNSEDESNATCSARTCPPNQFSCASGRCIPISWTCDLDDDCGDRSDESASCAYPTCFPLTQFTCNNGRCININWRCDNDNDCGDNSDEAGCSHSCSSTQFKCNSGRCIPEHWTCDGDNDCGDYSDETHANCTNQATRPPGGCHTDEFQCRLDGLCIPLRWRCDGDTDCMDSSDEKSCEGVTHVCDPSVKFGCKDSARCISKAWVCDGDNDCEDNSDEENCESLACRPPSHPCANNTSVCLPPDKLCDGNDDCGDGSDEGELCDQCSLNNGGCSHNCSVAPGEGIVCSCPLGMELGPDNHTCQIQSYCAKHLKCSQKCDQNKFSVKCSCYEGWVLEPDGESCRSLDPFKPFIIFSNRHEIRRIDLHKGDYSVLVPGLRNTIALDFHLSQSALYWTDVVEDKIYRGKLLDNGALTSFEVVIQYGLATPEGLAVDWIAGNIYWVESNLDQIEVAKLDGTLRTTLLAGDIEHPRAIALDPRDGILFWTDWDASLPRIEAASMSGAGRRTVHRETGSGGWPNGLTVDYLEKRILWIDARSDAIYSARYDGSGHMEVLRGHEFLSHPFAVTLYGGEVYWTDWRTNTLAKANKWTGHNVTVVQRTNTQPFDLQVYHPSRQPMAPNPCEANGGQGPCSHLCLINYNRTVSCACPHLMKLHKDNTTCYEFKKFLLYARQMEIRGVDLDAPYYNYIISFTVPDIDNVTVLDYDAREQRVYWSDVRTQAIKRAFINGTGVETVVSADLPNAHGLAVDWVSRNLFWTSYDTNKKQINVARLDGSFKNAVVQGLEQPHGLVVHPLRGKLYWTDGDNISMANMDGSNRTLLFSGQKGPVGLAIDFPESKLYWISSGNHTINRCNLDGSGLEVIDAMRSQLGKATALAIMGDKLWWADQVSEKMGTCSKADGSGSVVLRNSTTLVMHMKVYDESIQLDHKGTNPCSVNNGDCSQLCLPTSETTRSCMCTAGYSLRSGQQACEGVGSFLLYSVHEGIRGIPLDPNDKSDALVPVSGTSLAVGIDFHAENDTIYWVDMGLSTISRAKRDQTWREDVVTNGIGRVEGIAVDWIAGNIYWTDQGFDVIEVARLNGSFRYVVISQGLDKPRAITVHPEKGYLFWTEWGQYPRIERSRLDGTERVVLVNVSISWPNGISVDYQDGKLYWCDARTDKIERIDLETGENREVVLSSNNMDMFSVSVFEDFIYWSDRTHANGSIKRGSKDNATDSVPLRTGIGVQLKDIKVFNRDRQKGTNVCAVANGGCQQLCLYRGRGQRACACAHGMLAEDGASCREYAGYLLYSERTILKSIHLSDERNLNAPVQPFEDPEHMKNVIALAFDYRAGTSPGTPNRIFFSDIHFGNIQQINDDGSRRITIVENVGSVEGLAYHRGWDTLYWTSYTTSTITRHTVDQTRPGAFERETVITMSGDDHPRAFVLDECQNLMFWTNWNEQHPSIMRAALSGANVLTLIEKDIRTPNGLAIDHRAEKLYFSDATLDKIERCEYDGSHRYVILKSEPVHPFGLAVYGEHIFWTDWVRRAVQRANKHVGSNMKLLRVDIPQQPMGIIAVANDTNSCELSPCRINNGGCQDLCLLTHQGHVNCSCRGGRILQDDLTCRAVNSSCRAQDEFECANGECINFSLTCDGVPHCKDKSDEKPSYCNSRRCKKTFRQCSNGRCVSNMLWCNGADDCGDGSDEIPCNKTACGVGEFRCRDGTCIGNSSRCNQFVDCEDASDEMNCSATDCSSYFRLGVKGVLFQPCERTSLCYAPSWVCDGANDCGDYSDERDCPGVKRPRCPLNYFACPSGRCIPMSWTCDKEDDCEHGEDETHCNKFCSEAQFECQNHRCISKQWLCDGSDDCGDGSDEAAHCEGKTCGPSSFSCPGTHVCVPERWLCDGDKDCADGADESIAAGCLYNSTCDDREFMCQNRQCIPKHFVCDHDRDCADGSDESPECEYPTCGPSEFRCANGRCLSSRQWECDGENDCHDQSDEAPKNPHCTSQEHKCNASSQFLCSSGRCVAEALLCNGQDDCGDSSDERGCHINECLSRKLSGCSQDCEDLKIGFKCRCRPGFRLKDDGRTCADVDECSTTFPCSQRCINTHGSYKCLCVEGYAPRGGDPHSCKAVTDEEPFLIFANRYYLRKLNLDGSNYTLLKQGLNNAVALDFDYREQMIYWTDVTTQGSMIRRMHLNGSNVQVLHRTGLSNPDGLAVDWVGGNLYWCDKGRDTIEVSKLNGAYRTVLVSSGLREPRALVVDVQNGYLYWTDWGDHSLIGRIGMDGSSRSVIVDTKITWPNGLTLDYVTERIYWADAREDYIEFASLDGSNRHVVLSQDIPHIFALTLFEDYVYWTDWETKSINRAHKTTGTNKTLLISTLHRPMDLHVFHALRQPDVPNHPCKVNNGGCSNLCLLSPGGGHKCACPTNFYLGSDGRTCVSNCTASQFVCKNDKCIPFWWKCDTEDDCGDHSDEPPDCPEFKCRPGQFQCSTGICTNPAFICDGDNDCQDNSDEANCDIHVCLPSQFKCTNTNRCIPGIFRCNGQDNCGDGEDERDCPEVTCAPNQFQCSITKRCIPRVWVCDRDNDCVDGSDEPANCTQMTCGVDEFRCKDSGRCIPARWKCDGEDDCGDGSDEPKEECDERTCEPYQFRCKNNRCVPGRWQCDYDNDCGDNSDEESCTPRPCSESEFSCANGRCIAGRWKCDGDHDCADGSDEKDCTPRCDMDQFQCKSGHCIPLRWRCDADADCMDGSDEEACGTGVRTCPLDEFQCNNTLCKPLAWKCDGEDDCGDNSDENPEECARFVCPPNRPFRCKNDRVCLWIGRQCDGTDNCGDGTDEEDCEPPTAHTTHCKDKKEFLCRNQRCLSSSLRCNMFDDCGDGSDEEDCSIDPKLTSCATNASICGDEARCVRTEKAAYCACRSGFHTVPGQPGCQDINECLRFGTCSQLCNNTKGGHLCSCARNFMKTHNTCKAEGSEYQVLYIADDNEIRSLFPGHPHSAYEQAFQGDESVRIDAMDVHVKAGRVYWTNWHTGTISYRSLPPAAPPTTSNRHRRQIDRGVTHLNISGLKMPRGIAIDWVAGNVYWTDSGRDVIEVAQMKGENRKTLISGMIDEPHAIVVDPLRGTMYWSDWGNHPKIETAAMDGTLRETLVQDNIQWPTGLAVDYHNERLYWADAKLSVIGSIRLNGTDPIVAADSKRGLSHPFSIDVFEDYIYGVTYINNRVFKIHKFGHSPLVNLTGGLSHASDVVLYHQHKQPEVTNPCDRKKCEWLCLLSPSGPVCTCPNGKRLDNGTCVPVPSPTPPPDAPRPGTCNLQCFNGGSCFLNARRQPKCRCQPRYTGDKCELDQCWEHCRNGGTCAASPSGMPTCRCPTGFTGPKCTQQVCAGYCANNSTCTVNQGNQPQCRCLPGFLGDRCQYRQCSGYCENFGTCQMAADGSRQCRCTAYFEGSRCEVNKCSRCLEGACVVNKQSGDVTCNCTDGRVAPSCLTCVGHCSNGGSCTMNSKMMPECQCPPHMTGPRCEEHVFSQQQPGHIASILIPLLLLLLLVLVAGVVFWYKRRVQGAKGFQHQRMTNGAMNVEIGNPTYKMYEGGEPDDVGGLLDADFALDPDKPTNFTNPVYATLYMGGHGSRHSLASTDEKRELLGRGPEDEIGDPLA

## leptin: plasma protein of 16 kDa produced by adipocytes; recombinant human or mouse leptin, species depends on the experiment
LRP
  degradation of activated α2-macroglobulin, the preferred LRP ligand: no detectable effect
LSR
  binding of chylomicrons to rat hepatocytes: additive stimulatory effect

From US7470669B2, “Isolated polypeptide comprising a leptin fragment” (Serono Genetics Institute, S.A., priority 1999, dated 2008)
